The chains are these.
B1: Dual specificity mitogen-activated protein kinase kinase 6 (Homo sapiens), P52564 (parent)
chain: MSQSKGKKRNPGLKIPKEAFEQPQTSSTPPRDLDSKACISIGNQNFEVKADDLEPIMELGRGAYGVVEKMRHVPSGQIMAVKRIRATVNSQEQKRLLMDLDISMRTVDCPFTVTFYGALFREGDVWICMELMDTSLDKFYKQVIDKGQTIPEDILGKIAVSIVKALEHLHSKLSVIHRDVKPSNVLINALGQVKMCDFGISGYLVDSVAKTIDAGCKPYMAPERINPELNQKGYSVKSDIWSLGITMIELAILRFPYDSWGTPFQQLKQVVEEPSPQLPADKFSAEFVDFTSQCLKKNSKERPTYPELMQHPFFTLHESKGTDVASFVKLILGD

The assay covers variants of B1. The conditions noted are these: with lrrk2_human LRRK2, Q5S007.
lrrk2_human LRRK2, Q5S007, sequence (Q5S007 whole entry): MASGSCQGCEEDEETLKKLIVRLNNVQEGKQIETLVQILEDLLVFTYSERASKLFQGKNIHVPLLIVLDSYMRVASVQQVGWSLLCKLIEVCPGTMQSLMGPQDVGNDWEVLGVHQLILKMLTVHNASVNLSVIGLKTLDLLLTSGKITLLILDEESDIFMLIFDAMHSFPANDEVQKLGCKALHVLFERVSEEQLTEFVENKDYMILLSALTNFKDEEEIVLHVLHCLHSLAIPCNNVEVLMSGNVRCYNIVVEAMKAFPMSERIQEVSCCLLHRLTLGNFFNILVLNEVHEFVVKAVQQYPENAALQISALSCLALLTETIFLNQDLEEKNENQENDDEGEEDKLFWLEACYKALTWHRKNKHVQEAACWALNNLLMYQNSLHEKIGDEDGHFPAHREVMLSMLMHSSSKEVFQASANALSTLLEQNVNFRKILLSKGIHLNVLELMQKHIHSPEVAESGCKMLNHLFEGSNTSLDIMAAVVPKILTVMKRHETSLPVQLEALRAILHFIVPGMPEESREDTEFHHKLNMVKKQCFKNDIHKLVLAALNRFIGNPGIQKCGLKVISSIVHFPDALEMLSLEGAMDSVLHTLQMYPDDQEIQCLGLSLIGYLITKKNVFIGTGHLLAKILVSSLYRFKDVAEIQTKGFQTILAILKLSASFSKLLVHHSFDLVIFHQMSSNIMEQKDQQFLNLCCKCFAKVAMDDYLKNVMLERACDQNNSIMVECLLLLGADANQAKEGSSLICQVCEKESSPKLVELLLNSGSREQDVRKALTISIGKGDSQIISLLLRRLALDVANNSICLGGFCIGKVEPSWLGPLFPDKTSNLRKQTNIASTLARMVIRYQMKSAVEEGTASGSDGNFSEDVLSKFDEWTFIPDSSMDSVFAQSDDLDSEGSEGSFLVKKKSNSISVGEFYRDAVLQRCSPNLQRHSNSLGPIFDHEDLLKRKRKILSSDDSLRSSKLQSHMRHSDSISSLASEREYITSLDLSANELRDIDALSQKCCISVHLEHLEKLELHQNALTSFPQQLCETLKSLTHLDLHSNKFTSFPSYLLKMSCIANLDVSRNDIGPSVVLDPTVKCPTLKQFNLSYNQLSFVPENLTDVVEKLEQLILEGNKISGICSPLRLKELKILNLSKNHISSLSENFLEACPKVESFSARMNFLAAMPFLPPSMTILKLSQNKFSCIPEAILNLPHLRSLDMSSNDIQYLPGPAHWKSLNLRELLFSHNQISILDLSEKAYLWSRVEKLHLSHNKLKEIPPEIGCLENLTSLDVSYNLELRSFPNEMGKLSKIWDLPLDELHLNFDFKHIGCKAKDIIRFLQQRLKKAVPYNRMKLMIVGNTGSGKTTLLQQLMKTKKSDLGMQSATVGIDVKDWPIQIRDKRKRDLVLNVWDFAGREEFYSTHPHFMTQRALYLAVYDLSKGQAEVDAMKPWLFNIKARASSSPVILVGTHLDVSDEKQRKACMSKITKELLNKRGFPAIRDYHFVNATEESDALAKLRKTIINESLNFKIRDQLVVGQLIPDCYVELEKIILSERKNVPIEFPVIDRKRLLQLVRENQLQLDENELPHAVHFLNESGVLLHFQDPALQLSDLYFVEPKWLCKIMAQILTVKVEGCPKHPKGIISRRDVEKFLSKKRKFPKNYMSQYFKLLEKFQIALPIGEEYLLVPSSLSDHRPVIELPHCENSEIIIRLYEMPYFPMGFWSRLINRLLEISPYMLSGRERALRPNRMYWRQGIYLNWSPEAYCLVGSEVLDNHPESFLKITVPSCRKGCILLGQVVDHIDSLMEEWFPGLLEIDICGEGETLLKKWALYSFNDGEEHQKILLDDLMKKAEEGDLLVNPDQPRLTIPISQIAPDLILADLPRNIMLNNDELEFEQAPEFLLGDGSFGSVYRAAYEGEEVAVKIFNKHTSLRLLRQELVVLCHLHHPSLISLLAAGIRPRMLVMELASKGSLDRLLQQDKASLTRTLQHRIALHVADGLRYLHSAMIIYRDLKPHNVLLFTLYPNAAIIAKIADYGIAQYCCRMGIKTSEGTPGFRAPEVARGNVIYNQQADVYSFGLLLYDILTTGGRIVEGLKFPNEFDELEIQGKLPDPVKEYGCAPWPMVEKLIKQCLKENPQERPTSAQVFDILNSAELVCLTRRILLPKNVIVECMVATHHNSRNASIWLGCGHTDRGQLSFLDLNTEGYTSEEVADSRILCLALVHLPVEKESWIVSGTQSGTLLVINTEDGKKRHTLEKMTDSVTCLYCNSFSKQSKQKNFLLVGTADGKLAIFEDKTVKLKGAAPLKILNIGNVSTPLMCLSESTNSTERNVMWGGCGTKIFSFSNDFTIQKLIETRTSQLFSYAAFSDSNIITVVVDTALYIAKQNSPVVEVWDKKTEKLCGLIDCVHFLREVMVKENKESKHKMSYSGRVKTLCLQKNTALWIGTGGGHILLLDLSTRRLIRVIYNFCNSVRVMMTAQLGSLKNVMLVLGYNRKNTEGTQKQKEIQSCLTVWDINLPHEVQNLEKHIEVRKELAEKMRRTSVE
Consider K82A, for which the “effect of a mutation on the interaction” value is “decreasing interaction”.

The values are drawn from IntAct's records for PubMed 20067578.
